{
  "source": "paper PMC8694188",
  "about": "“EPSP Synthase-Depleted Cells Are Aromatic Amino Acid Auxotrophs in Mycobacterium smegmatis” (Microbiology Spectrum, 2021)",
  "proteins": {"B1": {"name": "MsEPSPS (Mycolicibacterium smegmatis MC2 155) (protein)", "chain": "MSARADEEQKPHWAAPSTTAPVDATVTVPGSKSLTNRALILAALATSQGTSTISGALRSRDTDLMIEAIRTLGVTVDISAADPTELTVHGSIEPATDATVDCGLAGTVLRFVPPVAALSRSSVTFDGDEQARSRPIAPLLDGLRRLGVRLDGDGLPFTVRGTGTVSGGTVEIDASGSSQFVSGLLLSGAGFENGLTIVHTGVSVPSAPHVAMTVAMLRDAGVEVDDSVANRWQVNPGPVAARSWNIEPDLSNSTPFLAAALVTGGTVRIAGWPTVSIQPADTILELLATVGGSVREADGHLEVTGAHEYGGFEADLHDVGELAPTVAALAALAKEGSTSQLRGIAHLRGHETDRLAALTTEINGLGGDCRETDDGLLITARPLHGGTWRSYADHRMATAGAIVGLRVPGVVVENIETTAKTLPDFPSMWVDMLAGEPGRNQQR", "notes": "full-length WT aroA in pET-23a(+) (NdeI/HindIII), expressed in E. coli; no tag evident (native stop codon in reverse primer, ion-exchange and hydrophobic purification); apparent mass 46 kDa on SDS-PAGE"}, "B2": {"name": "MsEPSPS (Mycolicibacterium smegmatis MC2 155; E321N) (protein)", "chain": "MSARADEEQKPHWAAPSTTAPVDATVTVPGSKSLTNRALILAALATSQGTSTISGALRSRDTDLMIEAIRTLGVTVDISAADPTELTVHGSIEPATDATVDCGLAGTVLRFVPPVAALSRSSVTFDGDEQARSRPIAPLLDGLRRLGVRLDGDGLPFTVRGTGTVSGGTVEIDASGSSQFVSGLLLSGAGFENGLTIVHTGVSVPSAPHVAMTVAMLRDAGVEVDDSVANRWQVNPGPVAARSWNIEPDLSNSTPFLAAALVTGGTVRIAGWPTVSIQPADTILELLATVGGSVREADGHLEVTGAHEYGGFEADLHDVGNLAPTVAALAALAKEGSTSQLRGIAHLRGHETDRLAALTTEINGLGGDCRETDDGLLITARPLHGGTWRSYADHRMATAGAIVGLRVPGVVVENIETTAKTLPDFPSMWVDMLAGEPGRNQQR", "notes": "as for B1"}, "B3": {"name": "MsEPSPS (Mycolicibacterium smegmatis MC2 155; D61W) (protein)", "chain": "MSARADEEQKPHWAAPSTTAPVDATVTVPGSKSLTNRALILAALATSQGTSTISGALRSRWTDLMIEAIRTLGVTVDISAADPTELTVHGSIEPATDATVDCGLAGTVLRFVPPVAALSRSSVTFDGDEQARSRPIAPLLDGLRRLGVRLDGDGLPFTVRGTGTVSGGTVEIDASGSSQFVSGLLLSGAGFENGLTIVHTGVSVPSAPHVAMTVAMLRDAGVEVDDSVANRWQVNPGPVAARSWNIEPDLSNSTPFLAAALVTGGTVRIAGWPTVSIQPADTILELLATVGGSVREADGHLEVTGAHEYGGFEADLHDVGELAPTVAALAALAKEGSTSQLRGIAHLRGHETDRLAALTTEINGLGGDCRETDDGLLITARPLHGGTWRSYADHRMATAGAIVGLRVPGVVVENIETTAKTLPDFPSMWVDMLAGEPGRNQQR", "notes": "as for B1"}, "B4": {"name": "MsEPSPS (Mycolicibacterium smegmatis MC2 155; R134A) (protein)", "chain": "MSARADEEQKPHWAAPSTTAPVDATVTVPGSKSLTNRALILAALATSQGTSTISGALRSRDTDLMIEAIRTLGVTVDISAADPTELTVHGSIEPATDATVDCGLAGTVLRFVPPVAALSRSSVTFDGDEQARSAPIAPLLDGLRRLGVRLDGDGLPFTVRGTGTVSGGTVEIDASGSSQFVSGLLLSGAGFENGLTIVHTGVSVPSAPHVAMTVAMLRDAGVEVDDSVANRWQVNPGPVAARSWNIEPDLSNSTPFLAAALVTGGTVRIAGWPTVSIQPADTILELLATVGGSVREADGHLEVTGAHEYGGFEADLHDVGELAPTVAALAALAKEGSTSQLRGIAHLRGHETDRLAALTTEINGLGGDCRETDDGLLITARPLHGGTWRSYADHRMATAGAIVGLRVPGVVVENIETTAKTLPDFPSMWVDMLAGEPGRNQQR", "notes": "as for B1"}},
  "substrate": "C=C(OP(=O)(O)O)C(=O)O",
  "test": "continuous coupled spectrophotometric Pi release assay (MtPNP / MESG)",
  "assay_type": "biochemical, Mycolicibacterium smegmatis",
  "conditions": "apparent constant, PEP varied at fixed-saturating S3P, 100 mM Tris-HCl pH 7.8, 25°C",
  "excerpt": "continuous coupled spectrophotometric Pi release assay (MtPNP / MESG) on MsEPSPS",
  "data": [
    {"protein": "B1", "values": [
      {"measurement": "Km", "result": "88 ± 11", "unit": "µM"},
      {"measurement": "kcat", "result": "0.553 ± 0.0185", "unit": "s⁻¹"},
      {"measurement": "kcat/Km", "result": 6280, "unit": "M⁻¹ s⁻¹"}
    ]},
    {"protein": "B2", "values": [
      {"measurement": "Km", "result": "3,081 ± 808 μM"},
      {"measurement": "kcat", "result": "0.438 ± 0.0469", "unit": "s⁻¹"},
      {"measurement": "kcat/Km", "result": 142, "unit": "M⁻¹ s⁻¹"}
    ]},
    {"protein": "B3", "values": [
      {"measurement": "Km", "result": "1,014 ± 975 μM"},
      {"measurement": "kcat", "result": "0.107 ± 0.0608", "unit": "s⁻¹"},
      {"measurement": "kcat/Km", "result": 106, "unit": "M⁻¹ s⁻¹"}
    ]},
    {"protein": "B4", "values": [
      {"measurement": "Km", "result": "3,676 ± 1,007 μM"},
      {"measurement": "kcat", "result": "0.184 ± 0.033", "unit": "s⁻¹"},
      {"measurement": "kcat/Km", "result": 50.1, "unit": "M⁻¹ s⁻¹"}
    ]}
  ]
}
